Data set [1] concerns the molecule itself. The data set is described as follows: SEC; time profile of cold dissociation at 2°C followed by HPLC gel filtration; Tricine-KCl buffer pH 7.5, protein 1.0 mg/ml; tetramer to dimers. On the technique in general: SEC sorts molecules by how far they enter the pores of the column.
Data set [2] concerns the molecule itself. The data set is described as follows: SEC; HPLC gel filtration (BIOSEP-SEC S-3000) at 25°C; holo enzymes, 1 mg/ml, Tricine-KCl buffer pH 7.5 with PLP (0.1 mM by the table's footnote), 2 mM EDTA, 5 mM 2-mercaptoethanol; tetramer to dimers.
Data set [3] concerns the molecule itself. The data set is described as above. The source holds these as a separate data set.
Data set [4] concerns the molecule itself. Kind of data set: SEC; HPLC gel filtration (BIOSEP-SEC S-3000) at 2°C after 20 h at 2°C; holo enzymes, 1 mg/ml, Tricine-KCl buffer pH 7.5 with PLP (0.1 mM by the table's footnote), 2 mM EDTA, 5 mM 2-mercaptoethanol; tetramer to dimers.
Data set [5] deals with the molecule itself. Kind of data set: SEC; HPLC gel filtration (BIOSEP-SEC S-3000) at 25°C; apo enzymes, same Tricine-KCl buffer without PLP; tetramer to dimers (P. vulgaris: also to monomers).
Data set [6] concerns the molecule itself. The data set is described as follows: SEC; HPLC gel filtration (BIOSEP-SEC S-3000) at 2°C after cooling (20 h; P. vulgaris 24 h); apo enzymes, same Tricine-KCl buffer without PLP; tetramer to dimers (P. vulgaris: also to monomers).

Substitutions are numbered along the chain they refer to. In names and notes the source's numbering stands. Where only a bound is given, the exact number is not on record here.

B1: E. coli tryptophanase W330F mutant, holo form (enzyme)
chain: not shown
modifications: pyridoxal 5'-phosphate (PLP) covalently bound to Lys270
notes: tryptophanase (Trpase), E. coli, W330F mutant; also called W330F holo; source: E. coli SVS 370 cells containing the tnaA gene with the site-directed mutation, purified as the wild type
The stoichiometry N is a count of units in the complex or per binding partner. As for B1, in data set [1], the “initial rate constant of cold dissociation (tetramer to dimers)” value (“initial rate constant” below) came to 0.00084 min⁻¹. Further, the “stoichiometry N” value in data set [2] is 4. In addition, the “degree of dissociation to dimers (%)” value was under 5% in data set [3] and 61% in data set [4].

B2: wild-type E. coli tryptophanase, apo form (enzyme)
chain: not shown
notes: tryptophanase (Trpase, EC 4.1.99.1), E. coli, wild type, without PLP; also called wt apo; apo wt Trpase; source: E. coli SVS 370 cells containing the tnaA gene on plasmids, purified; apo enzyme by overnight dialysis of the holo enzyme against 0.1 M sodium phosphate-ethylenediamine buffer, pH 8.0, 4°C
Regarding B2, the entries for the “degree of dissociation to dimers (%)” value in data set [5] and in data set [6] were 70% and 87%, respectively.

B3: E. coli tryptophanase Y74F mutant, holo form (enzyme)
chain: MENFKHLPEPFRIRVIEPVKRTTRAYREEAIIKSGMNPFLLDSEDVFIDLLTDSGTGAVTQSMQAAMMRGDEAFSGSRSYYALAESVKNIFGYQYTIPTHQGRGAEQIYIPVLIKKREQEKGLDRSKMVAFSNYFFDTTQGHSQINGCTVRNVYIKEAFDTGVRYDFKGNFDLEGLERGIEEVGPNNVPYIVATITSNSAGGQPVSLANLKAMYSIAKKYDIPVVMDSARFAENAYFIKQREAEYKDWTIEQITRETYKYADMLAMSAKKDAMVPMGGLLCMKDDSFFDVYTECRTLCVVQEGFPTYGGLEGGAMERLAVGLYDGMNLDWLAYRIAQVQYLVDGLEEIGVVCQQAGGHAAFVDAGKLLPHIPADQFPAQALACELYKVAGIRAVEIGSFLLGRDPKTGKQLPCPAELLRLTIPRATYTQTHMDFIIEAFKHVKENAANIKGLTFTYEPKVLRHFTAKLKEV
modifications: pyridoxal 5'-phosphate (PLP) covalently bound to Lys270
notes: tryptophanase (Trpase), E. coli, Y74F mutant; the sample called 'Y74F holo' was run with 0.1 mM PLP; also called Y74F holo; source: E. coli BL21(DE3), pET17b plasmid, purified
Turning to B3, the “degree of dissociation to dimers (%)” value was 17% in data set [3] and 66% in data set [4].

B4: E. coli tryptophanase Y74F mutant, apo form (enzyme)
chain: B3 chain
notes: tryptophanase (Trpase), E. coli, Y74F mutant, without PLP; one monomer in the asymmetric unit of the crystal, the tetramer arises by symmetry; also called Y74F apo; apo Y74F; source: E. coli BL21(DE3), pET17b plasmid, purified; apo enzyme by overnight dialysis of the holo enzyme
For B4, the “degree of dissociation to dimers (%)” value amounted to 80% in data set [5] and 83% in data set [6].

B5: E. coli tryptophanase C298S mutant, apo form (enzyme)
chain: B3 chain with F74Y, C298S
notes: tryptophanase (Trpase), E. coli, C298S mutant, without PLP; one monomer in the asymmetric unit of the crystal, the tetramer arises by symmetry; also called C298S apo; apo C298S; source: E. coli SVS 370 cells containing the tnaA gene with the site-directed mutation, purified; apo enzyme by overnight dialysis of the holo enzyme
Regarding B5, the “degree of dissociation to dimers (%)” value is over 80% in data set [5] and 88% in data set [6].

B6: E. coli tryptophanase C298S mutant, holo form (enzyme)
chain: B3 chain with F74Y, C298S
modifications: pyridoxal 5'-phosphate (PLP) covalently bound to Lys270
notes: tryptophanase (Trpase), E. coli, C298S mutant; also called C298S holo; source: E. coli SVS 370 cells containing the tnaA gene with the site-directed mutation, purified as the wild type
For the protein B6, the “initial rate constant” value in data set [1] is 0.0032 min⁻¹. Moreover, the “stoichiometry N” value in data set [2] turned out to be 4. For the same protein, the “degree of dissociation to dimers (%)” value was under 5% in data set [3] and 64% in data set [4].

B7: E. coli tryptophanase W330F mutant, apo form (enzyme)
chain: not shown
notes: tryptophanase (Trpase), E. coli, W330F mutant, without PLP; also called W330F apo; source: E. coli SVS 370 cells containing the tnaA gene with the site-directed mutation, purified; apo enzyme by overnight dialysis of the holo enzyme
In the case of B7, the entries for the “degree of dissociation to dimers (%)” value in data set [5] and in data set [6] were 69% and 90%, respectively.

B8: wild-type E. coli tryptophanase, holo form (enzyme)
chain: not shown
modifications: pyridoxal 5'-phosphate (PLP) covalently bound to Lys270
notes: tryptophanase (Trpase, EC 4.1.99.1), E. coli, wild type, ~52 kD per monomer; also called wt holo; wt Trpase; source: E. coli SVS 370 cells containing the tnaA gene on plasmids, purified (DEAE anion exchange, Sephacryl S-300-HR)
As for B8, in data set [1], the “initial rate constant” value came to 0.00042 min⁻¹. The “stoichiometry N” value in data set [2] turned out to be 4. The “degree of dissociation to dimers (%)” value was under 3% in data set [3] and 20% in data set [4].

These data come from publication PMC2770544, “Conformational changes and loose packing promote E. coli Tryptophanase cold lability” (BMC Structural Biology, 2009).
